The results in this text go back to paper PMC3915908 (Cell Research, 2013).

The target in experiment [1] is T1, C-terminal domain of Pat1 (Pat1C), wild type (S. cerevisiae, UniProt P25644 422-796).
T1 sequence: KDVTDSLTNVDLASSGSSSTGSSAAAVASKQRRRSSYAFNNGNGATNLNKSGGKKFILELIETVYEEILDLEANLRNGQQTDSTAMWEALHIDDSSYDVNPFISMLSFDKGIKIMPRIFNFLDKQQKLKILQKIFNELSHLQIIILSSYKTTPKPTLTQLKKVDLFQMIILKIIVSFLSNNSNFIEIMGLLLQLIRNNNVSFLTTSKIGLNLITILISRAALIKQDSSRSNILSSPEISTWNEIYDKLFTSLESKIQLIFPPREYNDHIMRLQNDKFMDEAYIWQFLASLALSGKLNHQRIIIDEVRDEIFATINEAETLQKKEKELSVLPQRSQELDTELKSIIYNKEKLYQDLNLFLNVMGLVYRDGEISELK
Nature of the experiment: crystal structure.

Experiment [2] concerns the target T1, C-terminal domain of Pat1 (Pat1C), wild …. Nature of the experiment: native gel or EMSA. On the technique in general: In EMSA bound probe runs differently from free probe, usually more slowly.

B1: Lsm2 (natural protein)
chain: MLFFSFFKTLVDQEVVVELKNDIEIKGTLQSVDQFLNLKLDNISCTDEKKYPHLGSVRNIFIRGSTVRYVYLNKNMVDTNLLQDATRREVMTERK
For the molecule B1, the binding result in experiment [1] was “binds”.

B2: Lsm2-3 subcomplex, wild type (complex)
chain 1: MLFFSFFKTLVDQEVVVELKNDIEIKGTLQSVDQFLNLKLDNISCTDEKKYPHLGSVRNIFIRGSTVRYVYLNKNMVDTNLLQDATRREVMTERK
chain 2: METPLDLLKLNLDERVYIKLRGARTLVGTLQAFDSHCNIVLSDAVETIYQLNNEELSESERRCEMVFIRGDTVTLISTPSEDDDGAVEI
Turning to B2, in experiment [2], the binding result was “binds”.
